The target in this experiment is laminin from mouse EHS (Engelbreth-Holm-Swarm) sarcoma (mouse). Kind of experiment: ELISA. (In an ELISA, binding on a coated surface is turned into a signal by an enzyme label.)
As a reminder, the Kd is the concentration at which binding is half-saturated. Take “RPSA-(2–209) (from UniProt P14206 2-209) (domain or fragment)”: the Kd was 273 nM.

For “RPSA-(2–220) (from UniProt P14206 2-220) (domain or fragment)”, the Kd is 691 nM.

In turn, “RPSA-(2–295) (from UniProt P14206 2-295) (natural protein)” gave a Kd of 666 nM.

As for “RPSA-(210–295) (from UniProt P14206 210-295) (domain or fragment)”, the Kd was 374 nM.

Take “RPSA-(225–295) (from UniProt P14206 225-295) (domain or fragment)”: the Kd was 344 nM.

For the origin of these results see paper PMC4098866.
